Data set [1] has as its system HeLa Kyoto. In words: thermal stability score vs G1/S (z-score of summed log2 fold changes over temperatures); higher = more thermally stable than in G1/S.
Data set [2] has as its system HeLa Kyoto. Description: solubility in G1/S (NP-40 vs SDS abundance) (log2 ratio); higher = more soluble. The note with it: cell cycle stage: G1/S.
The subject of data set [3] is HeLa Kyoto. Description: melting temperature (median over replicates), in situ; higher = more thermally stable.
Data set [4] relates to HeLa Kyoto. In words: solubility change mitosis vs G1/S (difference of NP-40 vs SDS log2 ratios) (log2 ratio difference); higher = more soluble in mitosis.
Setting [5] is: cell cycle stage: early G1 (4.5 h after nocodazole release).
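Wherever melting temperature (median over replicates), in situ is given: HeLa Kyoto cells synchronized by double thymidine or nocodazole block, proteins quantified by TMT10plex mass spectrometry, three independent biological replicates.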
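Wherever solubility change mitosis vs G1/S (difference of NP-40 vs SDS log2 ratios) is given: synchronized HeLa Kyoto cells (double thymidine block for G1/S, nocodazole release for mitosis), protein amounts in NP-40 versus SDS lysates quantified by mass spectrometry, three biological replicates.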
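Wherever solubility in G1/S (NP-40 vs SDS abundance) is given: HeLa Kyoto cells arrested at G1/S by double thymidine block, proteins quantified by TMT10plex mass spectrometry in mild NP-40 versus SDS extracts, three biological replicates.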
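Wherever thermal stability score vs G1/S (z-score of summed log2 fold changes over temperatures) is given: synchronized HeLa Kyoto cells, proteins quantified by TMT10plex mass spectrometry, three biological replicates, mitosis taken 0.5 h after nocodazole release, G1/S directly after double thymidine block.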

As to “MGPRKKSVKTCIMNNEIPEEMTADETKDYMNQLSHEVLCHIFRYLPLQDIMCMECLSRKLKEAVTLYLRVVRVVDLCAGRWWEYMPSGFTDASFLTLLKKMPDVEQLYGLHPRYLERRRVRGHEAFSIPGVLEALQACPNLVGVETSHLELVESIWTYMPHVHILGKFRNRNGAFPIPPENKLKIPIGAKIQTLHLVGVNVPEIPCIPMLRHLYMKWVRLTKPQPFKDFLCISLRTFVMRNCAGPTNSLKYVPLVTGLASARNLEHLEMVRVPFLGGLIQHVVEDSWRSGGFRNLHTIVLGACKNALEVDLGYLIITAARRLHEVRIQPSLTKDGVFSALKMAELEFPQFETLHLGYVDEFLLQSRMANADLVKYGLADVVENPGIITDIGMKAVNEVFSCIKYLAIYNCPHLHNPYNWISDHSRWTRLVDINLVRCHALKLDSFGQFIELLPSLEFISLDQMFREPPKGCARVGLSAGTGIGVSSALVSNQNSNNDDNNAQNNNANIHDNNHHHPDDSDEENDFRQDLQPGEQQFAADALNEMEDIVQEDGEVVAESGNNTPAHSQAIIPVDVDEEQAGPSGLQRVVKPTSITVHDSESDDEEDSLELQEVWIPKNGTRRYSEREEKTGESVQSRELSVSGKGKTPLRKRYNSHQMGQSKQFPLEESSCEKGCQVTSEQIKADMKAARDIPEKKKNKDVYPSCSSTTASTVGNSSSHNTASQSPDFVRTVNSGGSSEPSPTEVDVSRQCACSPGGSEDSEAMEEGDAESSVCPRCCCHRPQESQRRTSRCSDEERPSTSRACVVNGPDGTRSAFSFRTLPQGGSSGPAHDERTNGSGSGATGEDRRGSSQPESCDVQSNEDYPRRPLTRARSRLSHVLLVSESEVAKTKPRHAMKRKRTADKSTSTSDPVIEDDHVQVLVLKSKNLVGVTMTNCGITDLVLKDCPKMMFIHATRCRVLKHLKVENAPIVNRFDYAQCKKLNMDQVLDQILRMPPERNRIIYLRPMQQVDTLTLEQKLFSGPYPYHICIIHEFSNPPNVRNKVRIRSWMDTIANINQELIKYEFFPEATRSEEDLKKYPKYPWGREIYTLEGVVDGAPYSMISDFPWLRSLRAAEPNSFARYDFEDDEESTIYAPRRKGQLSADICMETIGEEISEMRQMKKGVFQRVVAIFIHYCDVNGEPVEDDYI [FBXO38]”, the thermal stability score in data set [1] (setting [5]) was -0.768; in data set [1] (cell cycle stage: mitosis), -0.745. Moreover, the “solubility in G1/S (log2)” value in data set [2] was -0.338. Moreover, the results for the melting temperature in data set [3] (cell cycle stage: G1/S) and in data set [3] (cell cycle stage: mitosis) were 51.6 °C and 51.3 °C, respectively. The “solubility change mitosis (log2)” value in data set [4] is -0.0833.
For “MGLPEPGPLRLLALLLLLLLLLLLQLQHLAAAAADPLLGGQGPAKDCEKDQFQCRNERCIPSVWRCDEDDDCLDHSDEDDCPKKTCADSDFTCDNGHCIHERWKCDGEEECPDGSDESEATCTKQVCPAEKLSCGPTSHKCVPASWRCDGEKDCEGGADEAGCATLCAPHEFQCGNRSCLAAVFVCDGDDDCGDGSDERGCADPACGPREFRCGGDGGGACIPERWVCDRQFDCEDRSDEAAELCGRPGPGATSAPAACATASQFACRSGECVHLGWRCDGDRDCKDKSDEADCPLGTCRGDEFQCGDGTCVLAIKHCNQEQDCPDGSDEAGCLQGLNECLHNNGGCSHICTDLKIGFECTCPAGFQLLDQKTCGDIDECKDPDACSQICVNYKGYFKCECYPGYEMDLLTKNCKAAAGKSPSLIFTNRHEVRRIDLVKRNYSRLIPMLKNVVALDVEVATNRIYWCDLSYRKIYSAYMDKASDPKEQEVLIDEQLHSPEGLAVDWVHKHIYWTDSGNKTISVATVDGGRRRTLFSRNLSEPRAIAVDPLRGFMYWSDWGDQAKIEKSGLNGVDRQTLVSDNIEWPNGITLDLLSQRLYWVDSKLHQLSSIDFSGGNRKTLISSTDFLSHPFGIAVFEDKVFWTDLENEAIFSANRLNGLEISILAENLNNPHDIVIFHELKQPRAPDACELSVQPNGGCEYLCLPAPQISSHSPKYTCACPDTMWLGPDMKRCYRAPQSTSTTTLASTMTRTVPATTRAPGTTVHRSTYQNHSTETPSLTAAVPSSVSVPRAPSISPSTLSPATSNHSQHYANEDSKMGSTVTAAVIGIIVPIVVIALLCMSGYLIWRNWKRKNTKSMNFDNPVYRKTTEEEDEDELHIGRTAQIGHVYPAAISSFDRPLWAEPCLGETREPEDPAPALKELFVLPGEPRSQLHQLPKNPLSELPVVKSKRVALSLEDDGLP [LRP8]”, the thermal stability score in data set [1] (setting [5]) is -3.43; in data set [1] (cell cycle stage: mitosis), -3.53. For the same substance, the “solubility in G1/S (log2)” value in data set [2] amounted to 0.0581. For the same substance, the values for the melting temperature in data set [3] (cell cycle stage: G1/S) and in data set [3] (cell cycle stage: mitosis) were 55.6 °C and 56.7 °C, respectively. Also, the “solubility change mitosis (log2)” value in data set [4] was -0.0602.
Take “MFEIKKICCIGAGYVGGPTCSVIAHMCPEIRVTVVDVNESRINAWNSPTLPIYEPGLKEVVESCRGKNLFFSTNIDDAIKEADLVFISVNTPTKTYGMGKGRAADLKYIEACARRIVQNSNGYKIVTEKSTVPVRAAESIRRIFDANTKPNLNLQVLSNPEFLAEGTAIKDLKNPDRVLIGGDETPEGQRAVQALCAVYEHWVPREKILTTNTWSSELSKLAANAFLAQRISSINSISALCEATGADVEEVATAIGMDQRIGNKFLKASVGFGGSCFQKDVLNLVYLCEALNLPEVARYWQQVIDMNDYQRRRFASRIIDSLFNTVTDKKIAILGFAFKKDTGDTRESSSIYISKYLMDEGAHLHIYDPKVPREQIVVDLSHPGVSEDDQVSRLVTISKDPYEACDGAHAVVICTEWDMFKELDYERIHKKMLKPAFIFDGRRVLDGLHNELQTIGFQIETIGKKVSSKRIPYAPSGEIPKFSLQDPPNKKPKV [UGDH]”: the thermal stability score in data set [1] (setting [5]) is 0.636; in data set [1] (cell cycle stage: mitosis), 0.376. Further, the “solubility in G1/S (log2)” value in data set [2] came to 0.126. Also, the melting temperature in data set [3] (cell cycle stage: G1/S) was 54 °C; in data set [3] (cell cycle stage: mitosis) it was 54.2 °C. Also, in data set [4], the “solubility change mitosis (log2)” value is -0.0998.
As to PPIH, the thermal stability score in data set [1] (setting [5]) was found to be 1.19; in data set [1] (cell cycle stage: mitosis), 0.86. Further, the “solubility in G1/S (log2)” value in data set [2] was found to be 0.00262. For the same substance, the values for the melting temperature in data set [3] (cell cycle stage: G1/S) and in data set [3] (cell cycle stage: mitosis) were 49.9 °C and 49.5 °C, respectively. Besides, in data set [4], the “solubility change mitosis (log2)” value stood at 0.0864.
As to “MGAYARASGVCARGCLDSAGPWTMSRALRPPLPPLCFFLLLLAAAGARAGGYETCPTVQPNMLNVHLLPHTHDDVGWLKTVDQYFYGIKNDIQHAGVQYILDSVISALLADPTRRFIYVEIAFFSRWWHQQTNATQEVVRDLVRQGRLEFANGGWVMNDEAATHYGAIVDQMTLGLRFLEDTFGNDGRPRVAWHIDPFGHSREQASLFAQMGFDGFFFGRLDYQDKWVRMQKLEMEQVWRASTSLKPPTADLFTGVLPNGYNPPRNLCWDVLCVDQPLVEDPRSPEYNAKELVDYFLNVATAQGRYYRTNHTVMTMGSDFQYENANMWFKNLDKLIRLVNAQQAKGSSVHVLYSTPACYLWELNKANLTWSVKHDDFFPYADGPHQFWTGYFSSRPALKRYERLSYNFLQVCNQLEALVGLAANVGPYGSGDSAPLNEAMAVLQHHDAVSGTSRQHVANDYARQLAAGWGPCEVLLSNALARLRGFKDHFTFCQQLNISICPLSQTAARFQVIVYNPLGRKVNWMVRLPVSEGVFVVKDPNGRTVPSDVVIFPSSDSQAHPPELLFSASLPALGFSTYSVAQVPRWKPQARAPQPIPRRSWSPALTIENEHIRATFDPDTGLLMEIMNMNQQLLLPVRQTFFWYNASIGDNESDQASGAYIFRPNQQKPLPVSRWAQIHLVKTPLVQEVHQNFSAWCSQVVRLYPGQRHLELEWSVGPIPVGDTWGKEVISRFDTPLETKGRFYTDSNGREILERRRDYRPTWKLNQTEPVAGNYYPVNTRIYITDGNMQLTVLTDRSQGGSSLRDGSLELMVHRRLLKDDGRGVSEPLMENGSGAWVRGRHLVLLDTAQAAAAGHRLLAEQEVLAPQVVLAPGGGAAYNLGAPPRTQFSGLRRDLPPSVHLLTLASWGPEMVLLRLEHQFAVGEDSGRNLSAPVTLNLRDLFSTFTITRLQETTLVANQLREAASRLKWTTNTGPTPHQTPYQLDPANITLEPMEIRTFLASVQWKEVDG [MAN2B1]”, the thermal stability score is -0.143 in data set [1] (setting [5]) and -1.1 in data set [1] (cell cycle stage: mitosis). For the same substance, in data set [2], the “solubility in G1/S (log2)” value turned out to be 0.313. For the same substance, the values for the melting temperature in data set [3] (cell cycle stage: G1/S) and in data set [3] (cell cycle stage: mitosis) were 57.1 °C and 56.6 °C, respectively. Also, the “solubility change mitosis (log2)” value in data set [4] is -0.109.

The values above are taken from the supplement of paper PMC5998384.
